According to the DeepSol protein solubility set:

assay: soluble on expression in E. coli; label from the status in PepcDB or PDB records

| Sequence | soluble on expression in E. coli |
| --- | --- |
| GPGSMADSIKKHFQQENEVKDTGCMTSALSYLPIYINTDKLPENMLVGAPLFYPPQMAVLPLSWTDAVGFERSCFITCEGPFPHMTANGKDPHDMSFFFLQYMQRVPFMQSTAERGLPIKQLQDVGLLCCTDAFSHIVTDPAERVVVIFGRNGPYFTSLVITPCTMPEKNVVGNIQLANQISLQDLQKLLDACCPTPLVDEIRLAGTSAGTLQGKLHIACRYGNRVVQFTAASALTVRSARDNEDFIFSLEGDVLAQKRIVFDAATIDALISGKTLDELFSCPGPQCMRVSSLVQLIHMEDLTEISHNLGNGASNGDVTREINLKVSGSRLLLSAGEVSVVFHHAHLGVHFPINSHHGVICEPVLTTDLCLMYYPLGSTAALPNAMMRRVRQLPPTWERSLHTDDALRHNALFHFTDWMRGSVPCITCDLSGFRCAQLYEEKDGMSCRTYVVPLAEEIMVLRWETSTCDWEQHLPHLQKFIDTLHLEVPTA | not soluble |
| MGSDKIHHHHHHEEPVGEFLPGQVESEENIEGIVTGAYAVLDGYYASDAINSGCSNWQFGDVVSDDAYKGGGGTGDQNQIHLMEIFNANPTGIDFEARWAALYEGIKRCNQAIRLLNGSEVKNKEQRLAEMRFLRGHYYFNLKIIYNQIPWIDETLVDPNEYNKKSNIEFSSDQLWEKILEEFSAAYKVLPESQADYGRPTKMAARAYMAKVYLYQSKWKECLEACDEVIQSGKYELFPDFRNVFLPENDNCSEIIFAIQLSINDGSPNNENGSYGDRLLPPGGPYPVYGFLRPTQNLVNAYKTDVKGLPYNDGKDVSENDYVDVRLDHTLARPNIPFMDVQLYDWTPREASVYGPYSPKKRLVSLNSTYYSPIWPYVNALNFYVIRYADLLLWRAEAAIETGDLETGRKYINMIRERAKNTQHVKTMDQSQDAANYKVGVYDEPFKSKNEAVQALRMERRLEMAHEGIRFFDLVRWGVADEVINAYIAKEKVFRSHLQNAHFVKGKHEYFPIPQSMIDICGTEVMKQNPGY | not soluble |
| MGSDKIHHHHHHMTFEQLLYAVELANHQTLQETADLLHISKSGLSQSISQLENELGVKLFKRTRYGSKLTAQGKELLPLIKQMLSQGVSLTKKAHNLGKSGQIETVRVAYANTMLKPFLNEYLAMYQDVPTKFNMEISQETVTQIIDGIRSHRINLGFIAINDSNKAEIHGLEFKPVHVGHLKLFLSPDNQLVKKQKINIEDLQKQRFALFNDPYNDRIFEHLQYLCGPLKTVIKTDDGWAMYTTIKKANAVALVRDWQTSYSSYEPLQKLPSLDISNLIDDRFYLGWLTNPKYTTSRYTHRYTQEFIKHVDAQIKEC | not soluble |
| MKGLYFQQSSTDEEITFVFQEKEDLPVTEDNFVKLQVKACALSQINTKLLAEMKMKKDLFPVGREIAGIVLDVGSKVSFFQPDDEVVGILPLDSEDPGLCEVVRVHEHYLVHKPEKVTWTEAAGSIRDGVRAYTALHYLSHLSPGKSVLIMDGASAFGTIAIQLAHHRGAKVISTACSLEDKQCLERFRPPIARVIDVSNGKVHVAESCLEETGGLGVDIVLDAGVRLYSKDDEPAVKLQLLPHKHDIITLLGVGGHWVTTEENLQLDPPDSHCLFLKGATLAFLNDEVWNLSNVQQGKYLCILKDVMEKLSTGVFRPQLDEPIPLYEAKVSMEAVQKNQGRKKQVVQF | soluble |
| MQPVLVFKLTADFREDPDPRKVNLGVGAYRTDDCHPWVLPVVKKVEQKIANDNSLNHEYLPILGLAEFRSCASRLALGDDSPALKEKRVGGVQSLGGTGALRIGADFLARWYNGTNNKNTPVYVSSPTWENHNAVFSAAGFKDIRSYRYWDAEKRGLDLQGFLNDLENAPEFSIVVLHACAHNPTGIDPTPEQWKQIASVMKHRFLFPFFDSAYQGFASGNLERDAWAIRYFVSEGFEFFCAQSFSKNFGLYNERVGNLTVVGKEPESILQVLSQMEKIVRITWSNPPAQGARIVASTLSNPELFEEWTGNVKTMADRILTMRSELRARLEALKTPGTWNHITDQIGMFSFTGLNPKQVEYLVNEKHIYLLPSGRINVSGLTTKNLDYVATSIHEAVTKIAENLYFQSHHHHHHDYKDDDDK | soluble |
| MKAKREALISLFHAIKEEKVDSDIIDLLLLINSIKGIYTTSSCSGRIGILEEPSLGAKPLSRWLIKVHRPMSFEEARDALKRAREGLIFLKSQPPIFHVVAETIENAKLVHEIGLASGFKYTTFKAISSRFLVEINGTEYLTVPLGKDGRIIASDEYLKFAISIGNKMLERGKSKLPRLRDNFEKIKKKLGEDPLFIQLKREILEILEHHHHHH | not soluble |
| GQSRERLVKWLQDAYAMEKEAETMMAAMASRIEHYPELKRRIEQHVEETQQQSAGVQRCLELLNGSIPTAKGMLSSVLASMHAAGNSMMTDEVTKGVGISYAFEHLEIASYRALVVAARSAGEQEVAQICEDILQQEIEMAEWLIEHQEAIVVAFLEREQLEGVGS | soluble |
| MNSGNMQDTLDLEKKLRGYLFGTACADALGRPVEHLTLKQIKEKYGEKGILELPPNSSWTDDTQLMLVLARGLLHGAEFELPELMKHIAGELVLWLKEPDLGAGATTKGAALSLKDGIHWSESGLNSKTCGSLMRVGILGFIFSNDPDKLIEAASLSGRITHNHPTADAASVAGAYAVKLALDGIAPEDMFLPLLRVTEGISDEFTEALKHSYELAHSNLSDEEALQKLGQGWYADETFALAYFCILRYPDNYKKAVQTGVNITGDSDSVGSVAGGILGARLGIEAVPVSWVESLKEKEIIEEMVEPLIEKYLEVSENKHQVSEDGFGAMAGDPLEHHHHHH | soluble |
| MNTAAGRKEDIRIPPRVAPDLNAPRVLVLNASYEPLQVTSIKRAITLLQYGVAEVLEQSRDVVRSPSTVMSVPSVIRLRRYVRRPRVGAVPFNRRNVLRRDHFTCQYCGSQDDLTMDHVHPRSRGGKHGWDNVVTACRTCNQRKGNLTPEEAGMPLHVPPHAPTFGVYAHGQFAHWQPEWSGYIRGLEHHHHHH | not soluble |
| NPMSVLLGKAEQLNLLYDKYWDDSMRLNPLQATLQGDAYHGDRMPNFLSAEFRKQHHDFIEKWLKKVEMVGADGLDGQAFISYQIFVRDARNSLHAERYPNWMLPINQFYNIANVAVVLGSGNGAQPFNTVQDYDNWAHRSLGIPALFNQAIVNMRLGMKSGVVQPKVLMEKVIPQLDSIIKPTAEETLFWVPIRNMSVTFSKENRQRITAEYKSIIEYRLLPAYRALRNFIATEYLPVCRDSVGLSALPGGASWYAYTVRQSTTTNMTPEQIHQLGLKEVERLQAEIQSVMRQLNFNGSMQKFFSFMQNNEYFTFGSEKEMLAYYRDLRTRVEARVPALFSLVPKAGFEILPVESFRAPSAAAGSYMPPSSNRRHNGVFYANTNDLSSRRTWNAEKLFLHQGIPGYHFQLGLQQELRNLPKFRRLGGETAFIEGWGLYAESLGKELGLYQDAYNYFGYLQDALSRAIRLVVDTGLHTKGWTRAQVVDYIVENSATSPIEAEAEVDRYIAIPGQALAYKVGELKIHQLRQYAQLTLGPMFDLREFHAEILKDGSVPLDILQQKIERWIAVK | not soluble |
| MTTLTQVRPASVFVVSGGAKGITAQCVIELAQHQPCRFILLGRSEVIENEPDFARDCVEESVLKKAIMQHLLAQGEKPTPMSVQKVYHKIVSSREIKATLEAIAATGSQVEYIDVDVTNVAELRQKLADVGKITGIIHGAGNLADKLIEKKTDQDFEKVYTAKVQGLENLLSCVDANQLEHLVLFSSVAGFYGNMGQSDYAIANEILNKSAHLIKQNYPQCHVVAINWGGWDSGMVTPELKKAFAERGIDIIPVDVGTKMLVNELHPSHHDSTQVVIGSPIIPAPGNIDPQLRSYRIRRRMTVEANPFLLDHVIAGTPVLPATCGMSWMINACEECYPGYRYFRCQDFKILKGITFNDKVASEHILEIQEVAKHGSESIEFKTKVLSKTPEGKIHYHFSAHITIVRELPAAPVYESLDMTEDHTIGAIGKDFYQKGGLSLFHGISFQQITRVLNINSQKITVECCWAEIPLETQGQFPVKWHNPYATDLSTQPLWLWLSHVHQEVCLPGQITKSEQFRAIPRNKPFYVSCEIEHKTPSGVTADIILHDREGKIYFRIYQAKAIIAPMNLHLEHHHHHH | soluble |
| MEPHSLRYNLTVLSWDGSVQSGFLTEVHLDGQPFLRCDRQKCRAKPQGQWAEDVLGNKTWDRETRDLTGNGKDLRMTLAHIKDQKEGLHSLQEIRVCEIHEDNSTRSSQHFYYDGELFLSQNLETKEWTMPQSSRAQTLAMNVRNFLKEDAMKTKTHYHAMHADCLQELRRYLKSGVVLRRTVPPMVNVTRSEASEGNITVTCRASGFYPWNITLSWRQDGVSLSHDTQQWGDVLPDGNGTYQTWVATRICQGEEQRFTCYMEHSGNHSTHPVPS | soluble |
| MRYEEPVFRPPSEAFSLIVQATIGCSWNRCTFCGMYKMKKFRVRDIEEVKEDFRLAKEIYGDVRRVFLADGNALAADTDYLLEIADYANKLFNLERISCYATPQDILEKSKEELKEIRNAGIKLLYVGIESGDDEILERIRKGVSSNEIAEACMKAHECGFELSVTVLTGIGGKERSYKNARNTARLLNRISPKYTGVLTYIPVPNTPLYVKIKRGEFLLPNPLENLLELRWMVERIEARTIFRCNHASNYLPLKGTLPEDREKLLKAIDYAIAHPEVLKPEWLRGL | not soluble |
| MGSDKIHHHHHHMSYLKISDTIVETFRFIHYEQSNFLNRLHGGDMLFFLVETGMISASKVAMGTTLLASLDDVVFKKPVRLGDIVKVRAKTVYIGNTSLEVEVRAFVRDEEVVSAYATYVKVDDLLRPTPVNVKIMAESEDDKRKIDEAKKRRENRLSKIVNRQKMRFYVDDITDGLRYRISNVIHVSPELTYDGRIMSAGKLLKLMDDLGGIICLRYLDHNSSNLYDNSFNAVVTVAVKGLAFYSPIRLNDIILIRAGLVYVGNTSADILINVVREDLNGAKEHVATAYFTYVRVDKDGKPIKIPEYTPVTEREKRLYEEALTRRGLRK | not soluble |
| MVNSSKSILIHAQNKNGTHEEEQYLFAVNNTKAEYPRDKTIHQLFEEQVSKRPNNVAIVCENEQLTYHELNVKANQLARIFIEKGIGKDTLVGIMMEKSIDLFIGILAVLKAGGAYVPIDIEYPKERIQYILDDSQARMLLTQKHLVHLIHNIQFNGQVEIFEEDTIKIREGTNLHVPSKSTDLAYVIYTSGTTGNPKGTMLEHKGISNLKVFFENSLNVTEKDRIGQFASISFDASVWEMFMALLTGASLYIILKDTINDFVKFEQYINQKEITVITLPPTYVVHLDPERILSIQTLITAGSATSPSLVNKWKEKVTYINAYGPTETTICATTWVATKETIGHSVPIGAPIQNTQIYIVDENLQLKSVGEAGELCIGGEGLARGYWKRPELTSQKFVDNPFVPGEKLYKTGDQARWLSDGNIEYLGRIDNQVKIRGHRVELEEVESILLKHMYISETAVSVHKDHQEQPYLCAYFVSEKHIPLEQLRQFSSEELPTYMIPSYFIQLDKMPLTSNGKIDRKQLPEPDLTFGMRVDYEAPRNEIEETLVTIWQDVLGSHHHHHH | soluble |
| MSEVLTRGFRFRPADEEVTDYLMRKTQSPEFSCFIKTIDLYDKDPWVLGHVRDPCYNHYEWYYFVKKNPLGNEYLDKPRLNGFEHPRLKWDVLKQIHDALSSGQNVPPSVFTYGFRFHPTDQELLSLYLTPKAHSPDFSCFIRERESYMPWSHGFLNMLDLLFTRTVNGTTL | soluble |
| STRFPGVAIYLVEPRMGRSRRAFLTGLARSKGFRVLDACSSEATHVVMEETSAEEAVSWQERRMAAAPPGCTPPALLDISWLTESLGAGQPVPVECRHRLEVAGPRKGPLSPAWMPAYAC | soluble |
| MGSDKIHHHHHHARDTLFVNLTDATDSQSLKLSDFGNTVRYVPLETNEVCLIGNNPHIALLEDKIVIATKDQCFLFHKQTGKYICSIGHIGDDPSGYSSTNYWIDDAGLFYFFRAPDQLLKYNQKGEMTGKIQIPHIPAAPDFFAFSDSTIIAHCNSSIGLESSNSLLFLNSFGEKLDSIPNLLKSPSIPSPDNISSLSIIKRGAGFFGNLGRRGVMIIKDKEQGELLLPLYNPSLWSSENEVRFRETFTDTIYTIKNRKLYPYMVFHTDTDHSSANPLWYSNPQSIYVAYVLENTHSVFFQYVKNKQVYNGLYNKETQQTKFAKCQQFIVDDLTSEQELKVDLSALCSYKGEYGFILEAASIPDASQKQSDNKNENIPHWMSQLDEDANPVIAIVSDK | not soluble |
